We go through 2 molecules from patent US20050266469A1, “Alternatively spliced isoforms of checkpoint kinase 1 (CHK1)” (priority 2004, published 2005).

For one series, the target named is T1, CHK1sv1 (Homo sapiens, UniProt O14757).
T1 construct: made in house; host or cells: SF9 insect cells (baculovirus, pVL1393 transfer vector)
T1 sequence (O14757 with tags, fused parts or gaps): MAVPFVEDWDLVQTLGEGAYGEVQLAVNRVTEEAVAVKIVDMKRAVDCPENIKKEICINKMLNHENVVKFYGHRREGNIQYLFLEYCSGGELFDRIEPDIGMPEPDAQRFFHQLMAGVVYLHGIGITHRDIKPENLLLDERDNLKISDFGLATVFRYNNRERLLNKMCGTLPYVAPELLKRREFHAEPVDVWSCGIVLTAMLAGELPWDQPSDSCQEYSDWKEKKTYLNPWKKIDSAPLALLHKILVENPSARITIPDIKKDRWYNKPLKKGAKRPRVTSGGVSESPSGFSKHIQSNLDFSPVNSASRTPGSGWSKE
Briefly: CHK1sv1 kinase assay (Homogenous Time-Resolved Fluorescence, synthetic peptide substrate). The format is biochemical. To be noted: phospho-peptide product per microgram of CHK1sv1; ATP and CDC25C peptide substrate at saturating concentrations. The protocol: CHK1sv1 activity was assayed in vitro using a synthetic peptide substrate. The phophopeptide product was quantitated using a Homogenous Time-Resolved Fluorescence assay system (Park et al., 1999, Anal. Biochem. 269:94-104). The reaction mixture contained 40 mM HEPES, pH 7.3; 100 mM NaCl; 10 mM MgCl2; 2 mM dithiothreitol; 0.1% BSA; 0.1 mM ATP; 0.5 μM peptide substrate; and 0.1 nM CHK1sv1 enzyme in a final volume of 40 μl. […] The kinase reaction was incubated for 30 minutes at 22° C., and then terminated with 60 μl Stop/Detection Buffer (40 mM HEPES, pH 7.3; 10 mM EDTA; 0.125% Triton X-100; 1.25% BSA; 250 nM PhycoLink Streptavidin-Allophycocyanin (APC) Conjugate (Prozyme, San Leandro, Calif.); and […] Europium-chelate labeled anti-phosphotyrosine antibody (PY20, Perkin Elmer, Boston, Mass.)). The reaction was allowed to equilibrate for 2 hours at 22° C., and relative fluorescent units were read on a Discovery plate reader (Packard Biosciences). ATP Km was determined by varying ATP concentration from 0.003 to 3 mM in the reaction described above and determining the relative enzymatic rates. […] CHK1sv1 Vmax was calculated by determining the amount of phospho-peptide product formed per microgram of CHKsv1 when both ATP and CDC25C peptide substrate are at saturating concentrations.

Another series concerns the target T2, reference CHK1 (Homo sapiens, UniProt O14757).
T2 sequence (O14757 1-476): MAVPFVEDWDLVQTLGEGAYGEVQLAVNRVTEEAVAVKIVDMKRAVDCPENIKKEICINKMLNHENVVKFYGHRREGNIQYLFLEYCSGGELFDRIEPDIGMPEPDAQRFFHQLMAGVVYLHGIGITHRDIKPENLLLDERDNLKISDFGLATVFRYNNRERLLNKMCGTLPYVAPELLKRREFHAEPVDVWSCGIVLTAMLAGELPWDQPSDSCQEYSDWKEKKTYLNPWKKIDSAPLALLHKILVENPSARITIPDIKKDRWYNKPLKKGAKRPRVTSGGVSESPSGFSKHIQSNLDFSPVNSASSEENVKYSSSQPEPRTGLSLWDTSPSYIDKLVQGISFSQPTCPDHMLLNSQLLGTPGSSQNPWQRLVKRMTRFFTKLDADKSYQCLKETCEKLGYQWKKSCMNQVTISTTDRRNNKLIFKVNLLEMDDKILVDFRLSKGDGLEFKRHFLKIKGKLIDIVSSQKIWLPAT
To be noted: previously described (O'Neill et al., 2002; Jackson et al., 2000); cited from earlier work.

B1: CHK1sv1: splice variant isoform of human CHK1 protein, exon 9 spliced to exon 11, expressed in SF9 insect cells (protein, listed as Homo sapiens)
chain: T1 sequence (O14757 with tags, fused parts or gaps)
With B1, the Vmax in the series with CHK1sv1 was found to be 36 nmol/min/µg.

B2: CHK1: human checkpoint kinase 1 reference protein (protein, UniProt O14757 1-476, looked up)
Serine/threonine-protein …: T2 sequence (O14757 1-476)
As to B2, in the series with reference CHK1, the Vmax was 0.6 nmol/min/µg.
